Assays:
[1] = molecular target: Ferredoxin:NADP+ oxidoreductase (FNR), C. reinhardtii, recombinant soluble (C. reinhardtii) (UniProt P53991)
[2] = molecular target: Ferredoxin:NADP+ oxidoreductase (FNR), endogenous, complex-associated (C. reinhardtii (endogenous in strain cc124)) (UniProt P53991)

light-dependent NADPH production rate with FDX1 relative to FDX2 (FDX1/FDX2), PSI fractions with added soluble FNR (0.5 µM), 4 µM FDX [1]: 2.6 fold
light-dependent NADPH production rate with FDX1 relative to FDX2 (FDX1/FDX2), PSI–FNR fractions (complex-associated FNR), 4 µM FDX [2]: 23 fold
Substance: Ferredoxin 1 (FDX1), C. reinhardtii (natural protein)
